Biological target: T1, human PSMA on cells (LNCaP) (human, UniProt Q04609 1-750)
T1 construct: whole, on cells; also called LNCaP cells
Test: flow cytometry cell binding assay on LNCaP cells
Protocol: (§1) PSMA×CD3 bispecific antibodies were tested for binding to PSMA positive cell line, LNCAP, to PSMA negative cell line, PC3. To assess the binding capabilities of the PSMA bispecific antibodies, the cell-binding assay was utilized (described previously). Bispecific antibodies were normalized for protein concentration and then incubated with the same number of cells expressing either human or cyno PSMA. The MFI at each concentration was collected by flow cytometry and plotted as a function of concentration. Data was transformed via log 10 and then plotted. Nonlinear regression of binding curves was done to determine EC50s.

T1 sequence (Q04609 whole entry): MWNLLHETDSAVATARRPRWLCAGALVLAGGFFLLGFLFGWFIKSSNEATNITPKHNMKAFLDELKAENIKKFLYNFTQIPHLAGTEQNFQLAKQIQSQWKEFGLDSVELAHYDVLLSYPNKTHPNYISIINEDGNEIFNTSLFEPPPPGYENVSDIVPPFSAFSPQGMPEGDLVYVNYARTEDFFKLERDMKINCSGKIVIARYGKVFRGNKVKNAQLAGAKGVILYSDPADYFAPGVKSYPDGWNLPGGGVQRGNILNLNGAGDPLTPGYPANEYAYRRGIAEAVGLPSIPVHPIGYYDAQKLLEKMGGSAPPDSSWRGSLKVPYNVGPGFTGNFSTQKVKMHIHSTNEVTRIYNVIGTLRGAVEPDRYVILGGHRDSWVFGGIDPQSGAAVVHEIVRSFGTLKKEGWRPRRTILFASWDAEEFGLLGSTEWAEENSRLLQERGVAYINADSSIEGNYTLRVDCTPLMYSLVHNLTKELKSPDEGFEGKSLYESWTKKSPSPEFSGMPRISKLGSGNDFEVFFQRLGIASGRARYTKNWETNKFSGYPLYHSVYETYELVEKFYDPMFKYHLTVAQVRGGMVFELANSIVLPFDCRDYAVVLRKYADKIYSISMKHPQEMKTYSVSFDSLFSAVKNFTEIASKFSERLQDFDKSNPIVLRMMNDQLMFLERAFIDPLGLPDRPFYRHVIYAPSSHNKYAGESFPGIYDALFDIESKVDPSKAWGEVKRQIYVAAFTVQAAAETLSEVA

Binder	binding result	EC50 (read off the curve) [nM]
PS3B83 (bispecific antibody, human IgG4 S228P, kappa, lambda, F234A L235A, IgG4 PAA; also called PSMB363 x CD3B376) heavy 1: not shown light 1: not shown heavy 2: QVQLQQSGPRLVRPSQTLSLTCAISGDSVFNNNAAWSWIRQSPSRGLEWLGRTYYRSKWLYDYAVSVKSRITVNPDTSRNQFTLQLNSVTPEDTALYYCARGYSSSFDYWGQGTLVTVSSASTKGPSVFPLAPCSRSTSESTAALGCLVKDYFPEPVTVSWNSGALTSGVHTFPAVLQSSGLYSLSSVVTVPSSSLGTKTYTCNVDHKPSNTKVDKRVESKYGPPCPPCPAPEAAGGPSVFLFPPKPKDTLMISRTPEVTCVVVDVSQEDPEVQFNWYVDGVEVHNAKTKPREEQFNSTYRVVSVLTVLHQDWLNGKEYKCKVSNKGLPSSIEKTISKAKGQPREPQVYTLPPSQEEMTKNQVSLTCLVKGFYPSDIAVEWESNGQPENNYKTTPPVLDSDGSFLLYSKLTVDKSRWQEGNVFSCSVMHEALHNHYTQKSLSLSLGK light 2: QSALTQPASVSGSPGQSITISCTGTSSNIGTYKFVSWYQQHPDKAPKVLLYEVSKRPSGVSSRFSGSKSGNTASLTISGLQAEDQADYHCVSYAGSGTLLFGGGTKLTVLGQPKAAPSVTLFPPSSEELQANKATLVCLISDFYPGAVTVAWKADSSPVKAGVETTTPSKQSNNKYAASSYLSLTPEQWKSHRSYSCQVTHEGSTVEKTVAPTECS	binds	–
PS3B85 (bispecific antibody, human IgG4 S228P, kappa, lambda, F234A L235A, IgG4 PAA; also called PSMB345 x CD3B376) heavy 1: not shown light 1: not shown heavy 2: QVQLQQSGPRLVRPSQTLSLTCAISGDSVFNNNAAWSWIRQSPSRGLEWLGRTYYRSKWLYDYAVSVKSRITVNPDTSRNQFTLQLNSVTPEDTALYYCARGYSSSFDYWGQGTLVTVSSASTKGPSVFPLAPCSRSTSESTAALGCLVKDYFPEPVTVSWNSGALTSGVHTFPAVLQSSGLYSLSSVVTVPSSSLGTKTYTCNVDHKPSNTKVDKRVESKYGPPCPPCPAPEAAGGPSVFLFPPKPKDTLMISRTPEVTCVVVDVSQEDPEVQFNWYVDGVEVHNAKTKPREEQFNSTYRVVSVLTVLHQDWLNGKEYKCKVSNKGLPSSIEKTISKAKGQPREPQVYTLPPSQEEMTKNQVSLTCLVKGFYPSDIAVEWESNGQPENNYKTTPPVLDSDGSFLLYSKLTVDKSRWQEGNVFSCSVMHEALHNHYTQKSLSLSLGK light 2: QSALTQPASVSGSPGQSITISCTGTSSNIGTYKFVSWYQQHPDKAPKVLLYEVSKRPSGVSSRFSGSKSGNTASLTISGLQAEDQADYHCVSYAGSGTLLFGGGTKLTVLGQPKAAPSVTLFPPSSEELQANKATLVCLISDFYPGAVTVAWKADSSPVKAGVETTTPSKQSNNKYAASSYLSLTPEQWKSHRSYSCQVTHEGSTVEKTVAPTECS	binds	–
PS3B86 (bispecific antibody, human IgG4 S228P, kappa, lambda, F234A L235A, IgG4 PAA; also called PSMB346 x CD3B376) heavy 1: not shown light 1: not shown heavy 2: QVQLQQSGPRLVRPSQTLSLTCAISGDSVFNNNAAWSWIRQSPSRGLEWLGRTYYRSKWLYDYAVSVKSRITVNPDTSRNQFTLQLNSVTPEDTALYYCARGYSSSFDYWGQGTLVTVSSASTKGPSVFPLAPCSRSTSESTAALGCLVKDYFPEPVTVSWNSGALTSGVHTFPAVLQSSGLYSLSSVVTVPSSSLGTKTYTCNVDHKPSNTKVDKRVESKYGPPCPPCPAPEAAGGPSVFLFPPKPKDTLMISRTPEVTCVVVDVSQEDPEVQFNWYVDGVEVHNAKTKPREEQFNSTYRVVSVLTVLHQDWLNGKEYKCKVSNKGLPSSIEKTISKAKGQPREPQVYTLPPSQEEMTKNQVSLTCLVKGFYPSDIAVEWESNGQPENNYKTTPPVLDSDGSFLLYSKLTVDKSRWQEGNVFSCSVMHEALHNHYTQKSLSLSLGK light 2: QSALTQPASVSGSPGQSITISCTGTSSNIGTYKFVSWYQQHPDKAPKVLLYEVSKRPSGVSSRFSGSKSGNTASLTISGLQAEDQADYHCVSYAGSGTLLFGGGTKLTVLGQPKAAPSVTLFPPSSEELQANKATLVCLISDFYPGAVTVAWKADSSPVKAGVETTTPSKQSNNKYAASSYLSLTPEQWKSHRSYSCQVTHEGSTVEKTVAPTECS	binds	–
PS3B27 (bispecific antibody) chain 1: not shown chain 2: not shown chain 3: EVQLVESGGGLVQPGGSLRLSCAASGFTFNTYAMNWVRQAPGKGLEWVARIRSKYNNYATYYAASVKGRFTISRDDSKNSLYLQMNSLKTEDTAVYYCARHGNFGNSYVSWFAYWGQGTLVTVSSASTKGPSVFPLAPCSRSTSESTAALGCLVKDYFPEPVTVSWNSGALTSGVHTFPAVLQSSGLYSLSSVVTVPSSSLGTKTYTCNVDHKPSNTKVDKRVESKYGPPCPPCPAPEAAGGPSVFLFPPKPKDTLMISRTPEVTCVVVDVSQEDPEVQFNWYVDGVEVHNAKTKPREEQFNSTYRVVSVLTVLHQDWLNGKEYKCKVSNKGLPSSIEKTISKAKGQPREPQVYTLPPSQEEMTKNQVSLTCLVKGFYPSDIAVEWESNGQPENNYKTTPPVLDSDGSFLLYSKLTVDKSRWQEGNVFSCSVMHEALHNHYTQKSLSLSLGK chain 4: QTVVTQEPSLTVSPGGTVTLTCRSSTGAVTTSNYANWVQQKPGQAPRGLIGGTNKRAPGTPARFSGSLLGGKAALTLSGVQPEDEAEYYCALWYSNLWVFGGGTKLTVLGQPKAAPSVTLFPPSSEELQANKATLVCLISDFYPGAVTVAWKADSSPVKAGVETTTPSKQSNNKYAASSYLSLTPEQWKSHRSYSCQVTHEGSTVEKTVAPTECS	–	~6

Biological target: T1, human PSMA on cells (LNCaP)
Test: flow cytometry cell binding assay on LNCaP cells
Remark: another data set of the same source
Protocol: as §1

Binder	EC50 (read off the curve) [nM]	binding result
PS3B27 (bispecific antibody) chain 1: not shown chain 2: not shown chain 3: EVQLVESGGGLVQPGGSLRLSCAASGFTFNTYAMNWVRQAPGKGLEWVARIRSKYNNYATYYAASVKGRFTISRDDSKNSLYLQMNSLKTEDTAVYYCARHGNFGNSYVSWFAYWGQGTLVTVSSASTKGPSVFPLAPCSRSTSESTAALGCLVKDYFPEPVTVSWNSGALTSGVHTFPAVLQSSGLYSLSSVVTVPSSSLGTKTYTCNVDHKPSNTKVDKRVESKYGPPCPPCPAPEAAGGPSVFLFPPKPKDTLMISRTPEVTCVVVDVSQEDPEVQFNWYVDGVEVHNAKTKPREEQFNSTYRVVSVLTVLHQDWLNGKEYKCKVSNKGLPSSIEKTISKAKGQPREPQVYTLPPSQEEMTKNQVSLTCLVKGFYPSDIAVEWESNGQPENNYKTTPPVLDSDGSFLLYSKLTVDKSRWQEGNVFSCSVMHEALHNHYTQKSLSLSLGK chain 4: QTVVTQEPSLTVSPGGTVTLTCRSSTGAVTTSNYANWVQQKPGQAPRGLIGGTNKRAPGTPARFSGSLLGGKAALTLSGVQPEDEAEYYCALWYSNLWVFGGGTKLTVLGQPKAAPSVTLFPPSSEELQANKATLVCLISDFYPGAVTVAWKADSSPVKAGVETTTPSKQSNNKYAASSYLSLTPEQWKSHRSYSCQVTHEGSTVEKTVAPTECS	~6	–
PS3B60 (bispecific antibody, human IgG4 S228P, kappa, F234A L235A, IgG4 PAA; CD3 arm with F405L, R409K; also called PSMB344 x CD3B219) heavy: not shown light: not shown VH: EVQLVESGGGLVQPGGSLRLSCAASGFTFNTYAMNWVRQAPGKGLEWVARIRSKYNNYATYYAASVKGRFTISRDDSKNSLYLQMNSLKTEDTAVYYCARHGNFGNSYVSWFAYWGQGTLVTVSS VL: QTVVTQEPSLTVSPGGTVTLTCRSSTGAVTTSNYANWVQQKPGQAPRGLIGGTNKRAPGTPARFSGSLLGGKAALTLSGVQPEDEAEYYCALWYSNLWVFGGGTKLTVL	–	binds
PS3B61 (bispecific antibody, human IgG4 S228P, kappa, F234A L235A, IgG4 PAA; CD3 arm with F405L, R409K; also called PSMB345 x CD3B219) heavy: not shown light: not shown VH: EVQLVESGGGLVQPGGSLRLSCAASGFTFNTYAMNWVRQAPGKGLEWVARIRSKYNNYATYYAASVKGRFTISRDDSKNSLYLQMNSLKTEDTAVYYCARHGNFGNSYVSWFAYWGQGTLVTVSS VL: QTVVTQEPSLTVSPGGTVTLTCRSSTGAVTTSNYANWVQQKPGQAPRGLIGGTNKRAPGTPARFSGSLLGGKAALTLSGVQPEDEAEYYCALWYSNLWVFGGGTKLTVL	–	binds
PS3B62 (bispecific antibody, human IgG4 S228P, kappa, F234A L235A, IgG4 PAA; CD3 arm with F405L, R409K; also called PSMB346 x CD3B219) heavy: not shown light: not shown VH: EVQLVESGGGLVQPGGSLRLSCAASGFTFNTYAMNWVRQAPGKGLEWVARIRSKYNNYATYYAASVKGRFTISRDDSKNSLYLQMNSLKTEDTAVYYCARHGNFGNSYVSWFAYWGQGTLVTVSS VL: QTVVTQEPSLTVSPGGTVTLTCRSSTGAVTTSNYANWVQQKPGQAPRGLIGGTNKRAPGTPARFSGSLLGGKAALTLSGVQPEDEAEYYCALWYSNLWVFGGGTKLTVL	–	binds

Reference: patent publication US20230322924A1 (Janssen / Centocor, published 2023)
